Values quoted from earlier work in PMC4739856.
Several values for one entry are separate records, joined by “and”; a condition that tells them apart may be missing. Equal values may be shown once. Read-outs that look alike come from different tables or passages of the source.

Legend:
[1] = biological target: T1, His119 (UniProt position 145, PYVPVHFDASV); assay: NMR; details: apo (ligand-free) RNase A
[2] = biological target: T2, His12 (UniProt position 38, KFERQHMDSST); assay: NMR; details: apo (ligand-free) RNase A
[3] = biological target: T1, His119
[4] = biological target: T2, His12

## Ribonuclease A (RNase A, pancreatic ribonuclease) (Bos taurus)
[1]
  pKa: 6.03 and 6.34
[2]
  pKa: 5.87 and 6.18
[3]; apo (ligand-free) RNase A
  pKa: 6.2
[3]; complex with 3'-CMP
  pKa: 7.4
[4]; apo (ligand-free) RNase A
  pKa: 5.8
[4]; complex with 3'-CMP
  pKa: 8.0
